The record followed here is article PMC5931981, “Identification of a pyrophosphate-dependent kinase and its donor selectivity determinants” (Nature Communications, 2018).

Data set [1] has as its target T1, TM0415 (Thermotoga maritima, UniProt Q9WYP6).
T1 construct: gene TM_0415; synthetic gene in pET-15b, E. coli BL21(DE3)pLysS; N-terminal His-tag for activity and kinetics; untagged for crystallization; monomer
T1 sequence (Q9WYP6 1-286): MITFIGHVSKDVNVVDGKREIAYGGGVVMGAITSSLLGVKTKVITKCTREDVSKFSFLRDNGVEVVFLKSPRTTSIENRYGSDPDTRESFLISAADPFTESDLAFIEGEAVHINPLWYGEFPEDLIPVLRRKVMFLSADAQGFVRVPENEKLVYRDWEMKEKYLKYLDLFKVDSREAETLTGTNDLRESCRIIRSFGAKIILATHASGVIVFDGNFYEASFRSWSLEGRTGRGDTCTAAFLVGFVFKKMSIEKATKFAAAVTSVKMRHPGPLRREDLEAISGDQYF
The experiment in a line: X-ray crystal structure. It is filed as binding. The following applies: untagged.

Substrate in data set [2]: O[C@H]1[C@H](O)[C@@H](O)[C@H](O)[C@@H](O)[C@H]1O
Description: malachite green Pi assay. Type of data set: biochemical, Thermotoga maritima. The following applies: PPi as phosphate donor, 500 µM MgCl2, 50 mM MES-NaOH pH 6.1, 70 °C, His-tagged.

Substrate in data set [3]: O=P(O)(O)OP(=O)(O)O
Description: malachite green Pi assay. It is filed as biochemical, Thermotoga maritima. To be noted: myo-inositol as acceptor, 500 µM MgCl2, 50 mM MES-NaOH pH 6.1, 70 °C, His-tagged, upper limit, velocity constant at 15-500 µM.

For `O=P(O)(O)CP(=O)(O)O` [PCP], in data set [1] (phosphate-donor site, chain A, with Mg2+ and myo-inositol), the X-ray crystal structure result is “Chain A was complexed with PCP, a magnesium ion, and myo-inositol”. Take `O[C@H]1[C@H](O)[C@@H](O)[C@H](O)[C@@H](O)[C@H]1O` [myo-inositol]: the X-ray crystal structure entry in data set [1] (phosphate-acceptor site, with PCP and Mg2+, also in sulfate complex 5YSQ) was “D11, N78, Q141, and R145 in TM0415 interact with four of the six hydroxyl groups”.

B1: TM0415 (Thermotoga maritima MSB8) (protein)
chain: T1 sequence (Q9WYP6 1-286)
notes: synthetic gene in pET-15b, E. coli BL21(DE3)pLysS; N-terminal His-tag for activity and kinetics; untagged for crystallization; monomer
By Km is commonly meant the substrate concentration at which the rate is half of its maximum. As usually defined, the kcat is the maximal rate divided by the concentration of active sites. On to B1, for which, in data set [2], the Km came to 12 ± 2 mM and the kcat was 10.8 ± 0.3 s⁻¹. For the same molecule, the kcat in data set [3] was approximately 9.5 s⁻¹.
